Experimental data published in patent US20090288225A1, “Novel Aromatic Acyltransferase Genes” (Aomori Prefecture, priority 2006, published 2009).

Experiments:
[1] = Acyltransferase activity of purified 3′AT, substrates preternatin C5 and 1-O-p-coumaroyl-β-D-glucose; assay type: biochemical, butterfly pea (Clitoria ternatea); conditions: 3′AT activity
Experimental: A reaction solution (20 μl) containing 100 mM phosphate buffer (pH 6.5), 0.4 mM anthocyanin (4 μl), 0.5 mM 1-O-acyl-β-D-glucose (4 μl) and an enzyme solution (8 μl) was reacted at 30° C. The reaction was terminated by adding 4 μl of 1M aqueous hydrochloric acid solution. After addition of 24 μl of 5% acetonitrile containing 0.05 M TFA, the reaction solution was filtered with Millex-LH filter (Millipore) and then analyzed by HPLC by feeding a 10 μl aliquot.
HPLC analysis of anthocyanin acyltransferase reaction products were performed with Develosil ODS-UG-5 column (3.0 i.d.×250 mm; Nomura Chemical) at a column temperature of 35° C. Against an initial solvent that was 0.05 M trifluoroacetate (TFA)-containing 5% acetonitrile (MeCN) aqueous solution, 0.05 M TFA-containing 40% MeCN was added with a linear concentration gradient from 14 to 86% (20 min) and the reaction products were eluted at a flow rate of 0.5 ml/min. The reaction products were detected with PDA and their molecular weights were confirmed by LC-MS/MS. […]

[2] = UDP-glucose:hydroxycinnamate 1-O-glucosyltransferase activity of recombinant proteins from E. coli; assay type: biochemical; conditions: against all four types of hydroxycinnamic acid used
Experimental: The transformed E. coli was shaking-cultured overnight in 3 ml of LB medium containing 50 μg/ml kanamycin and 34 μg/ml chloramphenicol. This culture broth (500 μl) was inoculated into LB medium (50 ml) and shaking-cultured until absorbance at 600 nm reached 0.4. Then, isopropyl-β-D-thiogalactoside (IPTG) was added to give a final concentration of 0.4 mM. The cells were shaking-cultured at 25° C. for 16 hr and then harvested by refrigerated centrifugation (8000 rpm, 4° C., 20 min). CtGT11-4 protein was partially purified from the cells using Ni-NTA mini-column according to the method recommended by the manufacturer. […]
For measuring enzyme activity, a 30 μl reaction solution containing 100 mM potassium phosphate buffer (pH 7.4), 30 pmole of UDP-glucose, 30 pmole of hydroxycinnamic acid and 15 μl of recombinant protein solution was reacted at 30° C. […] The enzyme reaction products were analyzed by reversed-phase high performance liquid chromatography (Shiseido NanoSpace system) using Develosil C30-UG-5 (1.5 i.d.×250 mm). […] The eluted materials were detected with a PDA detector, and the resultant data were analyzed to thereby quantitatively determine 1-O-acyl-β-D-glucose. […]
LeGT13-20 and LeGT13-30 genes were expressed using pET30Ek/LIC System (Novagen). […] Resultant several clones were analyzed to confirm the nucleotide sequences thereof, and then transformed into E. coli BL21-CodonPlus(DE3)-RP. […]

B1: 3′AT protein: acyltransferase purified from butterfly pea petals, transfers aromatic acyl group to glucosyl group at position 3′ of anthocyanin (after Mono Q) (protein)
chain: GTIVEFLPGFDGPLPFVLETGYVGVGEGEDVQVFYYFVESENNPNEDPLMLWLTGGPGCSAFSGLALEIGPLIFKREEYNGGLPNLILRPHSWTKVSSIIFVDLPVSTGFTYARTDAAAQRSDWTLVHHAHEFLRKWLIDHPKFLQNELYIGGDSYSGIPIPVIVQEISQENEKGIQPWINLQGYILGNAITTRREKGYSIPFAHGMALISDELYESLRKNCKGEYLNVDPENVLCSRDIDSYSKATSRISFAHILERTCNSGDIKTSLRRSTIQRHHTKKFLNTNLKLPPLTCRTYANFQCGLWANDDNVRSALHIHKGSIGEWHRCSIRLPFTSDIPNSFEYHVNLSRKGYYRSLIYSGDHDMMVPFLGTQAWIRSLNYSIVDDWRPWNTNGQVAGYTRTYSNRMTYATIKGGGHTAPEFKPEECFAMYSRWISKRPLYENNTMSSYTNLASIL
For B1, which specific activity [1] is on record?
Its specific activity is 1492.6 pkat/mg.

B2: LeGT13-30: lobelia 1-O-acyl-β-D-glucose synthase, 486 amino acid residues, SEQ ID NO: 18 (protein)
chain: MGSLQGTTTVENLTHVFLVSFPGQGHVNPLLRLGKILASKGLLVTFSAPEMVGEIIKGANKYISDDELTPIGDGMIRFEFFSDSLGNTKEDNALRGNMDLYMPQLATFAKKSLSDILVKHQHHGRPVACLINNPFIPWISELAEEFNIPSAVLWVQSCASFSAYYHYHHNLVPFPTENEPERDVQLPSMPLLKYDEIPGFLLPSSPYGFLRRAILGQFKLLSKPICILVESFQELEDDCINYLSTLCPIKPIGPLFINPNVKTGSSIRGDFMKVEDCIDWLNTRADSSVVYISFGSIVYVKQEQITEIARGLADSGLSFLWAFKQPGVDMGLKPPSLPDGFLEEVKGRGKVVEWCSQEAVLGHPAVSCFMSHCGWNSTMEALSSGVPVAAFPIWGDQVTDAKFLVDEFKVGIRMCRGEADINKKVVPREEIARCLLAATSGPKAEELRRNALKWKKAAADSVGAGGSSDRNLEEFVGSIKKGVIGH
modifications: Lobelia erinus cv.Riviera Midnight Blue; Amino acid sequence of UDP-glucose hydroxycinnamic acid 1-O-glucosyltransferase
Which glucosyltransferase activity [2] does the source give for B2 here?
Its glucosyltransferase activity is “glucosyltransferase activity was confirmed”.

B3: LeGT13-20: lobelia 1-O-acyl-β-D-glucose synthase, 486 amino acid residues, SEQ ID NO: 16 (protein)
chain: MGSLQGTTTVENLTHVFLVSFPGQGHVNPLLRLGKILAFKGLLVTFSAPEMVGEIIKGANKYISDDELTPIGDGMIRFEFFSDGLGNTKEDNSLRGNMDLYMPQLATFAKKSLSEILIKHEKHGRPVACLINNPFIPWISELAEEFNIPSAVLWVQSCASFSAYYHYHHGLVPFPTENEPERDVQLPNMPLLKYDEIPGFLLPSSPYGFLRRAILGQFKLLSKPICILVESFQELENDCINYLSTLCPIKPIGPLFSNPSVRNGSSIRGDFMKVEDCIDWLNTRADSSVVYVSFGSIVYVKQEQITEIARGLADSGLSFLWAFKQPGIDMGLTPPSLPDGFLEEVKGRGKVVEWCSQEAVLSHPAVSCFMSHCGWNSTMEALSSGVPVAAFPIWGDQVTDAKFLVDEFKVGIRMCRGEADINKKVVTREEIARCLLAATSGPKAEELKRNALKWKKAAADSVGAGGSSDRNLEEFVGSIRKDVVGH
modifications: Lobelia erinus cv.Riviera Midnight Blue; Amino acid sequence of UDP-glucose hydroxycinnamic acid 1-O-glucosyltransferase
Which glucosyltransferase activity [2] does the source give for B3 here?
The glucosyltransferase activity was “glucosyltransferase activity was confirmed”.
